From US20080044436A1, “Method for Screening and Compositions for Treating Cancers” (priority 2004, published 2008)

How the values were obtained:
[1] = tested on: pRb; experiment: Western blot of pRb phosphorylation in HTO cells; assay type: cell-based, human; settings: HTO-GFP/TReP-132 cells after Dox removal, almost undetectable at 72 hours
Description: FIG. 9B: Protein extracts (20 μg) of HTO cells expressing GFP or GFP and TReP-132 under the control of doxycycline, incubated or not with dox for the indicated times, were analyzed by western blot using anti-pRb antibodies directed against all pRb forms (hyperphopshorylated, phosphorylated and hypophosphorylated) or only against pRb phosphorylated at Ser 780, a target residue of cyclin D1/CDK4.
Cells were washed twice with cold PBS (Phosphate Buffered Saline), then harvested either in cold RIPA buffer (1×PBS, 1% Nonidet P-40, 0.5% sodium deoxycholate, 0.1% SDS, phosphatase and protease inhibitors) for co-immunoprecipitation analysis, or in lysis buffer (50 mM Tris, pH 8.0, 0.1% IGEPAL (Sigma)) for kinase assays. The lysates were incubated for 30 min on ice and cell debris was eliminated by centrifugation. The extracts were then aliquoted and stored at −80° C. For western blot analysis, RIPA or lysate buffer was used. For immunoprecipitations, whole cell lysates (1 mg) in RIPA buffer were preincubated with 0.1 μg of mouse or rabbit IgG and 20 μl of protein A-Sepharose beads (Amersham Biosciences, Uppsala, Sweden) for 30 min at 4° C. […] The blots were then visualized with ECL reagent and quantified with SCANWISE and Perfect-IMAGE V-5.3 software (CLARA VISION, France).

[2] = tested on: p27^KiP1 gene; experiment: RNase protection assay of CDKI transcription in HeLa cells, p27; assay type: cell-based, human; settings: HeLa Tet-off cells, doxycycline removed
Description: All radiolabelled probes specific for the p130, Rb, p107, p53, p57, p27, p21, p19, p18, p14/p15, L32, and GAPDH genes were labelled with [α-^32P]UTP-ribonucleotide (PerkinElmer Life Sciences, Woodbridge, Ontario, CA) in the conditions specified in the “hCC-2 Muti-Probe Template Set” kit (Pharmingen, Mississauga, Ontario, CA). Ribonuclease protection experiments were carried out with the Ribonuclease III Protection kit (Ambion, Austin, Tex.). Ten micrograms of HeLa cell RNA were hybridized with the radiolabelled probe mixture at 56° C. and then digested for 45 min at 30° C. in RNase A/RNase T1 solution diluted 1:1000 in digestion buffer. The samples were separated on a polyacrylamide-6% urea gel.

[3] = tested on: cyclin D1/CDK6; experiment: In vitro kinase assay of immunoprecipitated cyclin D1/CDK6 (pRb substrate); assay type: biochemical, human; settings: TReP-132 induced for 48 hours in HTO-GFP/TReP-132 cells
Description: FIG. 9A: Kinase activities of each immunoprecipitated cyclin or CDK were quantified using pRb as substrate to measure cyclin D1/CDK6 activity, or histone H1 to measure cyclin A/CDK2 activity. The levels of phosphorylation of histone H1 or pRb in induced HTO cells (HeLa Tet Off) are expressed in relation to the levels in non-induced HTO cells (corresponding to level 1.0).
Cells were washed twice with cold PBS (Phosphate Buffered Saline), then harvested either in cold RIPA buffer (1×PBS, 1% Nonidet P-40, 0.5% sodium deoxycholate, 0.1% SDS, phosphatase and protease inhibitors) for co-immunoprecipitation analysis, or in lysis buffer (50 mM Tris, pH 8.0, 0.1% IGEPAL (Sigma)) for kinase assays. […] The blots were then visualized with ECL reagent and quantified with SCANWISE and Perfect-IMAGE V-5.3 software (CLARA VISION, France).
The kinase activities on histone H1 or Rb protein in the immunoprecipitates were measured as follows: the immunoprecipitates were first washed once with 1 ml of assay buffer (50 mM Tris-HCl, pH 7.4, 10 mM MgCl2, 1 mM dithiothreitol (DTT)), then resuspended in 20 μl of assay buffer containing 1 mg/ml casein (Sigma) and 1 μg of histone H1 or Rb protein (769) (sc-4112) as substrate. […]
The reaction was stopped by addition of 15 μl of electrophoresis buffer (3×). […] Phosphorylated Rb and histones were quantified by densitometry.

B1: TReP-132: Transcriptional Regulating Protein of 132 kDa, polypeptide comprising SEQ ID NO: 2; here expressed in cells from vectors (protein)
chain: MGDQQLYKTNHVAHGSENLFYQQPPLGVHSGLNHNYGNAVTGGGMDAPQASPISPHFPQDTRDGLGLPVGSKNLGQMDTSRQGGWGSHAGPGNHVQLRGNLANSNMMWGAPAQAEPTDGYQYTYSQASEIRTQKLTSGVLHKLDSFTQVFANQNLRIQVNNMAQVLHTQSAVMDGAPDSALRQLLSQKPMEPPAPAIPSRYQQVPQQPHPGFTGGLSKPALQVGQHPTQGHLYYDYQQPLAQVPVQGGQPLQAPQMLSQHMQQMQQHQYYPPQQQQQAGQQRISMQEIQTQPQQIRPSQPQPPPQQQQPQQLQLQQRQGSMQIPQYYQPQPMMQHLQEQQQQQMHLQPPSYHRDPHQYTPEQAHTVQLIPLGSMSQYYYQEPQQPYSHPLYQQSHLSQHQQREDSQLKTYSSDRQAQAMLSSHGDLGPPDTGMGDPASSDLTRVSSTLPHRPLLSPSGIHLNNMGPQHQQLSPSAMWPQMHLPDGRAQPGSPESSGQPKGAFGEQFDAKNKLTCSICLKEFKNLPALNGHMRSHGGMRASPNLKQEEGEKVLPPQPQPPLPPPPPPPPPPQLPPEAESLTPMVMPVSVPVKLLPPKPSSQGFTNSTVAAPSARDKPASSMSDDEMPVLEIPRKHQPSVPKAEEPLKTVQEKKKFRHRPEPLFIPPPPSYNPNPAASYSGATLYQSQLRSPRVLGDHLLLDPTHELPPYTPPPMLSPVRQGSGLFSNVLISGHGPGAHPQLPLTPLTPTPRVLLCRSNSIDGSNVTVTPGPGEQTVDVEPRINIGLRFQAEIPELQDISALAQDTHKATLVWKPWPELENHDLQQRVENLLNLCCSSALPGGGTNSEFALHSLFEAKGDVMVALEMLLLRKPVRLKCHPLANYHYAGSDKWTSLERKLFNKALATYSKDFIFVQKMVKSKTVAQCVEYYYTWKKIMRLGRKHRTRLAEIIDDCVTSEEEEELEEEEEEDPEEDRKSTKEEESEVPKSPEPPPVPVLAPTEGPPLQALGQPSGSFICEMPNCGAVFSSRQALNGHARIHGGTNQVTKARGAIPSGKQKPGGTQSGYCSVKSSPSHSTTSGETDPTTIFPCKECGKVFFKIKSRNAHMKTHRQQEEQQRQKAQKAAFAAEMAATIERTTGPVGAPGLLPLDQLSLIKPIKDVDILDDDVVQQLGGVMEEAEVVDTDLLLDDQDSVLLQGDAEL
[1]
  phosphorylated pRb (ppRb) level: marked reduction
[2]
  p27 gene transcription: induction
[3]
  in vitro kinase activity of cyclin D1/CDK6: reduced
